Assays:
[1] = molecular target: SARS-CoV-2 papain-like protease (PLpro) wild type (SARS-CoV-2)
[2] = molecular target: SARS-CoV-2 PLpro TR (truncated form lacking the Ubl domain) (SARS-CoV-2)

For “human ISG15 (interferon-stimulated gene product 15) (from UniProt P05161 1-157) (natural protein)”, the IC50 of free ISG15 for inhibition of ISG15-AMC cleavage [1] was 2.05 µM, the IC50 of free ISG15 for inhibition of Ub-AMC cleavage [1] was 1.59 µM and the IC50 of free ISG15 for inhibition of ISG15-AMC cleavage [2] was 2.05 µM. For the same substance, the IC50 of free ISG15 for inhibition of Ub-AMC cleavage [2] was 1.06 µM.

Source: publication PMC12495856
